Biological target: CTLA4 (UniProt P16410 36-161, limits assumed)
Experiment: Octet BLI, antigen immobilized, B-Body as analyte
Description: In each instance, the antigen is immobilized and the B-Body is the analyte.

Chain of CTLA4 (P16410 36-161 limits assumed): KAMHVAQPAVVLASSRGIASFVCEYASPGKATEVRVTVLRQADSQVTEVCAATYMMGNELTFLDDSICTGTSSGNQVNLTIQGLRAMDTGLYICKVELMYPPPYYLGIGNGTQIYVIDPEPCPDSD

B1: bivalent bispecific B-Body "BC1" (bispecific antibody)
chain 1: not shown
chain 2: EVQLVESGGGLVQPGGSLRLSCAASGFTFSDYDIHWVRQAPGKGLEWVGDITPYDGTTNYADSVKGRFTISADTSKNTAYLQMNSLRAEDTAVYYCARLVGEIATGFDYWGQGTLVTVSSASPREPQVYTDPPSRDELTKNQVSLTCLVKGFYPSDIAVEWESNGQPENNYKTTPPVLDSDGSFFLYSKLTVDKSRWQQGNVFSCSVMHEALHNHYTQKSLSLSGEC
chain 3: not shown
chain 4: QVQLVESGGGVVQPGRSLRLDCKASGITFSNSGMHWVRQAPGKGLEWVAVIWYDGSKRYYADSVKGRFTISRDNSKNTLFLQMNSLRAEDTAVYYCATNDDYWGQGTLVTVSSASTKGPSVFPLAPSSKSTSGGTAALGCLVKDYFPEPVTVSWNSGALTSGVHTFPAVLQSSGLYSLSSVVTVPSSSLGTQTYICNVNHKPSNTKVDKKVEPPKSC
notes: Specific for PD1 (nivolumab variable regions) and Antigen A; four different chains, one of each; also called bivalent 1×1 bispecific construct BC1
binding result: no binding

From patent US20260184765A1 (INVENRA, published 2026)
